Read-outs that look alike come from different tables or passages of the source.
T1: human IL6R expressed on cell surface (human, UniProt P08887 20-468)
T1 construct: whole, on cells; also called cell surface human IL6R; U266 cells expressing human IL6R
T1 sequence (looked up): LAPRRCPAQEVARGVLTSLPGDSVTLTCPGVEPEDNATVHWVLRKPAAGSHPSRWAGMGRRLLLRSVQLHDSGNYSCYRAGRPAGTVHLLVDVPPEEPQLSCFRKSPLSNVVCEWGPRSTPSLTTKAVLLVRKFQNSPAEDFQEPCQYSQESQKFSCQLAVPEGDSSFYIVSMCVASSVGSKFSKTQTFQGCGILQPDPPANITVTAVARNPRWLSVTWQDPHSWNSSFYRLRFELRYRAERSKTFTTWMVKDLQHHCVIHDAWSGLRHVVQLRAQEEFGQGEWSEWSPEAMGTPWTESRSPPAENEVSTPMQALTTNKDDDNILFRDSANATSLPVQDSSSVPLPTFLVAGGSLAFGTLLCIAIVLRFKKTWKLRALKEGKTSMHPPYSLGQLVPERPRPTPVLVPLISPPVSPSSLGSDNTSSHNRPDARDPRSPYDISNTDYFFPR

T2: recombinant human IL6R-his (human, UniProt P08887 20-365)
T2 construct: In house made; the entry includes the C-terminal His tag; also called human IL6R-his protein
T2 sequence: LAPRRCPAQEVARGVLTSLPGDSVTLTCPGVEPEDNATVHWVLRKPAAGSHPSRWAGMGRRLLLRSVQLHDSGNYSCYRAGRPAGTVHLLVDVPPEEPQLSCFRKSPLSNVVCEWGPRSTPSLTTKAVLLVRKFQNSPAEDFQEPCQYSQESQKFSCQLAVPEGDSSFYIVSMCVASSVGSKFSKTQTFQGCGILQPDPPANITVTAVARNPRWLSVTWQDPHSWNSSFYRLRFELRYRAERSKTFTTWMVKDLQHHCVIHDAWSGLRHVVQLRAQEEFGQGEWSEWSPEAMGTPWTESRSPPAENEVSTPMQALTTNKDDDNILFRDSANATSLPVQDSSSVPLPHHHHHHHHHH

T3: macaca IL6R-his protein (macaca mulatta)
T3 chain: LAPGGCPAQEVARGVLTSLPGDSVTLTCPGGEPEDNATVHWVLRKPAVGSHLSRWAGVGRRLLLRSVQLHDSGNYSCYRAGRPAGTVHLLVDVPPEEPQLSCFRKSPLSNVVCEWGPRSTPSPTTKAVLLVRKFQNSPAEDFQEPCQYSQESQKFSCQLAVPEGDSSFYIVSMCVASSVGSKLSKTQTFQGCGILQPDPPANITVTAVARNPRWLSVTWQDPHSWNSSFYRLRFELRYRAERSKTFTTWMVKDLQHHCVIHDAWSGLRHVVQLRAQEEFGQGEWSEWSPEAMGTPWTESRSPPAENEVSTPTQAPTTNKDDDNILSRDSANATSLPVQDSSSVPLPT


Tests used:
[1] = target: T1, human IL6R expressed on cell surface; test: cell-based binding FACS on U266 cells
Procedure: (§1) The binding activities of the mouse anti-IL6R antibodies to IL6R expressed on cell surface were tested by flow cytometry (FACS). Briefly, human myeloma cells U266 (ATCC® TIB-196™) were harvested from cell culture flasks, washed twice and resuspended in phosphate buffered saline (PBS) containing 2% v/v Fetal Bovine Serum (FACS buffer). 2×10⁵ U266 cells per well were incubated in 96 well-plates with 100 μl of the anti-IL6R antibodies or controls at various concentrations (starting at 40 nM with a 3-fold serial dilution in FACS buffer) for 40 minutes on ice. Cells were washed twice with FACS buffer, and added with 100 μL/well R-Phycoerythrin AffiniPure F(ab′)₂ Fragment Goat Anti-Mouse IgG (H+L) (1:1000 dilution in FACS buffer, Jackson ImmunoResearch Laboratories, Inc., Cat #115-116-146). Following an incubation of 40 minutes at 4° C. in dark, cells were washed three times and resuspended in FACS buffer. Fluorescence was measured using a Becton Dickinson FACS Canto II-HTS equipment. Data was analyzed using Graphpad Prism software and EC₅₀ values were reported.

[2] = target: T4, human IL6R-Fc protein (human, biotin-labeled in the ELISAs (sites not given)); test: ligand blocking ELISA: antibody pre-incubated with biotin-labeled human IL6R-Fc, added to plate-coated human IL6 (blocked ligand: human IL6)
T4 construct: In house made; also called biotin-labeled human IL6R-Fc protein

[3] = target: T4, human IL6R-Fc protein; test: benchmark blocking ELISA: antibody pre-incubated with biotin-labeled human IL6R-Fc, added to plate-coated Tocilizumab (competitor: Tocilizumab)
[4] = target: T1, human IL6R expressed on cell surface; test: cell-based binding FACS on U266 cells; remark: listed apart in the source
Procedure: as §1

[5] = target: T4, human IL6R-Fc protein; test: benchmark blocking ELISA: antibody pre-incubated with biotin-labeled human IL6R-Fc, added to plate-coated Tocilizumab (competitor: Tocilizumab); remark: listed apart in the source
Procedure: ELISA plates were washed once with wash buffer (PBS+0.05% v/v Tween-20, PBST) and then blocked with 200 μl/well blocking buffer (5% w/v non-fatty milk in PBST) overnight at 4° C.
The next day, the anti-IL6R antibodies of the disclosure or controls were diluted with biotin labeled human IL6R-Fc protein (SEQ ID NO: 43, 13.6 ng/ml in 2.5% w/v non-fatty milk in PBST), starting at 100 nM with a 5-fold serial dilution, and incubated at room temperature for 40 minutes. […] After incubation at 37° C. for 40 minutes, plates were washed 4 times using wash buffer. Then streptavidin conjugated HRP was added, and the plates were incubated for 40 minutes at 37° C. The plates were finally washed using wash buffer, and added with TMB. The reaction was stopped using 1M […], and the absorbance was read on a microplate reader using dual wavelength mode with 450 nm for TMB and 630 nm as the reference wavelength. The OD (450-630) values were plotted against antibody concentration. Data was analyzed using Graphpad Prism software and IC₅₀ values were reported.

[6] = target: T2, recombinant human IL6R-his; test: SPR Biacore; purified antibody captured by anti-human IgG on CM5, antigen in flow
[7] = target: T3, macaca IL6R-his protein; test: as above

T4 sequence (chain, as listed by the source limits assumed): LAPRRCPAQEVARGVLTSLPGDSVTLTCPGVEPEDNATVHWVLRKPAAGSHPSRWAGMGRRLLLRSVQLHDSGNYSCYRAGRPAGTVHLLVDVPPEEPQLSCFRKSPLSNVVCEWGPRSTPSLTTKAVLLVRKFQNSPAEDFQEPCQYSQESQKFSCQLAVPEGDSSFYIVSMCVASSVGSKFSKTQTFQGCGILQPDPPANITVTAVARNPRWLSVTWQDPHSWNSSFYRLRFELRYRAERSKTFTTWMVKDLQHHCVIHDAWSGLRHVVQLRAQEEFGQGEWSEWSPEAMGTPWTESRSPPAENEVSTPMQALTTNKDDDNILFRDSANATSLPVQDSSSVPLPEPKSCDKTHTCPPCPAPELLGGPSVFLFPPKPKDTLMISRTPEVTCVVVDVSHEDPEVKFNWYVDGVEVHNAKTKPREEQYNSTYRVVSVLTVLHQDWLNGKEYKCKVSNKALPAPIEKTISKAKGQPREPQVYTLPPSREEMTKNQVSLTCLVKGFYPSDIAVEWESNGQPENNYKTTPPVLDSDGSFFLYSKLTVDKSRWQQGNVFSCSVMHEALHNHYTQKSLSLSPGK

| EC50 [1] [nM] | IC50 [2] [nM] | IC50 [3] [nM] | EC50 [4] [nM] | IC50 [5] [nM] | Kd [6] [nM] | Kd [7] [nM] | koff [6] [s⁻¹] | kon [6] [M⁻¹ s⁻¹] | koff [7] [s⁻¹] | kon [7] [M⁻¹ s⁻¹] | Binder |
| --- | --- | --- | --- | --- | --- | --- | --- | --- | --- | --- | --- |
| 1.7 | 0.773 | 0.812 | 1.49 | 1.41 | 7.42 | 9.16 | – | – | – | – | Tocilizumab (antibody, human IgG1, kappa, V domains shown, In house made; also called benchmark; Actemra) VH: QVQLQESGPGLVRPSQTLSLTCTVSGYSITSDHAWSWVRQPPGRGLEWIGYISYSGITTYNPSLKSRVTMLRDTSKNQFSLRLSSVTAADTAVYYCARSLARTTAMDYWGQGSLVTVSS VL: DIQMTQSPSSLSASVGDRVTITCRASQDISSYLNWYQQKPGKAPKLLIYYTSRLHSGVPSRFSGSGSGTDFTFTISSLQPEDIATYYCQQGNTLPYTFGQGTKVEIKR |
| – | 0.231 | 0.186 | – | – | – | – | – | – | – | – | mouse anti-IL6R monoclonal antibody 1H7 (antibody, V domains shown, Mouse hybridoma mAb) VH: QVQLQQPGTELVKPGASVKLSCKASGYTFTNYWMHWVKQRPGQGLDWIGEINPTNGRTNYNENFKSKATLTVDKSSSTAYMQLSSLTSEDSAVYYCARLNTHYVFDSWGQGTTLTLSS VL: EIVLTQSPTTLAASPGEKITFTCSVSSSISSNYLHWYQQKPGFSPKLLISRTSTLASGVPARFSGSGSGTSYSLTIGTMEAEDVATYYCQQGSGIPFTFGSGTKLELK |
| 0.229 | – | – | – | 0.166 | – | – | – | – | – | – | mouse anti-IL6R monoclonal antibody 1A3 (antibody, V domains shown, Mouse hybridoma mAb purified on Protein A) VH: QVQLQQPGAELVKPGASVKLSCKASGYTFTSYWMHWVKQRPAQGLEWIGEINPSNGRTNFNEKFKTKATLTVDKSSNTAYMQLSSLTSEDSAVYSCLRLNTHYVFDYWGQGTTLTVSS VL: EIVLTQSPTTMAASPGEKITITCSASSSISSNYLHWYQQKPGFSPKLLISRTSNLASGVPTRFSGSGSGTSYSLTIGTMEAGDVATYYCQQGSGIPFTFGSGTKLEIK |
| – | – | – | 0.286 | – | – | – | – | – | – | – | mouse anti-IL6R monoclonal antibody 3C2 (antibody, V domains shown, Mouse hybridoma mAb) VH: QVQLQQPGTELVKPGASVKLSCKASGYTFTTYWIHWVKQRPGQGLEWIGEINPSNGRTNYNEHFKSKATLTVDKSSSTASMQLSSLTSADSAVYYCARLNTHYVFDSWGQGTTLTVSS VL: EIVLTQSPTTMAASPGEKITITCSASSSISSNYLHWYQQKPGFSPKLLIYRTSNLASGVPTHFSGSGSGTSYSLTIGTMEAEDVATYYCQQGSGIPFTFGSGTKLEIK |
| – | 0.261 | 0.194 | – | – | 0.85 | 1.18 | 0.000112 | 132000 | 0.000112 | 94800 | Chimeric 1H7 (antibody, human IgG1, kappa, V domains shown, Mouse variable regions on human IgG1 / human kappa constant regions; also called chimeric antibody 1H7) VH: QVQLQQPGTELVKPGASVKLSCKASGYTFTNYWMHWVKQRPGQGLDWIGEINPTNGRTNYNENFKSKATLTVDKSSSTAYMQLSSLTSEDSAVYYCARLNTHYVFDSWGQGTTLTLSS VL: EIVLTQSPTTLAASPGEKITFTCSVSSSISSNYLHWYQQKPGFSPKLLISRTSTLASGVPARFSGSGSGTSYSLTIGTMEAEDVATYYCQQGSGIPFTFGSGTKLELKR |
| 0.204 | 0.281 | 0.23 | – | 0.162 | – | – | – | – | – | – | mouse anti-IL6R monoclonal antibody 1B5 (antibody, V domains shown, Mouse hybridoma mAb) VH: QVQLQQPGAELVKPGASVKLSCKASGYTFTSYWMHWVKQRPGQGLEWIGEINPSNGRTNYNENFKSKATLTVDKSSSTAYMQLSSLTSEDSAVYYCARLNTHYVFDYWGQGTTLTVSS VL: EIVLTQSPTILAASPGEKITFTCSVSSSISSNYLHWYQQKPGFSPKLLIYRTSNLASGVPARFSGSGSGTSYSLTIGTMEAEDVATYYCQQGSGIPFTFGSGTKLEIK |
| – | – | – | 0.34 | – | – | – | – | – | – | – | mouse anti-IL6R monoclonal antibody 1G1 (antibody, V domains shown, Mouse hybridoma mAb) VH: QVQLQQPGAELVKPGASVKLSCKASGYTFTSYWMHWVKVRPGQGLEWIGEINPTNGRTNYNEDFKSKATLTVESSSSTAYMQFSSLTSEDSAVYYCARLNTHYVFDYWGQGTTLTVSS VL: EIVLTQSPTILAASPGEKITFTCSVSSSISSNYLHWYQQKPGFSPKLLIYRTSNLASGVPARFSGSGSGTSYSLTIGTMEAEDVATYYCQQGSGIPFTFGSGTKLEIK |
| – | – | – | – | – | 0.773 | 1.58 | 0.000112 | 145000 | 0.00012 | 75800 | humanized antibody hu1H7-V5 (antibody, human IgG1, kappa, V domains shown, Human IgG1 / kappa) VH: QVQLVQSGAEVKKPGASVKVSCKASGYTFTNYWMHWVRQAPGQGLEWIGEINPTNGRTNYNENFKSRVTLTVDTSTSTVYMELSSLRSEDTAVYYCARLNTHYVFDSWGQGTLVTVSS VL: EIVLTQSPGTLSLSPGERATLSCSVSSSISSNYLHWYQQKPGLSPRLLISRTSTLASGIPARFSGSGSGTEYTLTISRMQSEDFAVYYCQQGSGIPFTFGQGTKLEIKR |

Reference: patent publication US20230167182A1 (BIOSION, published 2023)
